The target of this data set is GST-histone H3 [GST: P08515].
GST-histone H3 [GST: P08515], sequence (P08515 whole entry, looked up): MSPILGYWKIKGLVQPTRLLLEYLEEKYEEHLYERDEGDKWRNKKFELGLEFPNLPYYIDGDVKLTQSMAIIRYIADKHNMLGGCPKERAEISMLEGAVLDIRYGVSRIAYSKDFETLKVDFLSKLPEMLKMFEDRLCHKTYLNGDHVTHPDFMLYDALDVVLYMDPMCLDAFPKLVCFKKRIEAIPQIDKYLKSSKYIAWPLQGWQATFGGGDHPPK

B1: Flag-tagged AURKB protein (protein)
chain: MAQKENSYPWPYGRQTAPSGLSTLPQRVLRKEPVTPSALVLMSRSNVQPTAAPGQKVMENSSGTPDILTRRHFTIDDFEIGRPLGKGKFGNVYLAREKKSHFIVALKVLFKSQIEKEGVEHQLRREIEIQAHLHHPNILRLYNYFYDRRRIYLILEYAPRGELYKELQKSCTFDEQRTATIMEELADALMYCHGKKVIHRDIKPENLLLGLKGELKIADFGWSVHAPSLRRKTMCGTLDYLPPEMIEGRMHNEKVDLWCIGVLCYELLVGNPPFESASHNETYRRIVKVDLKFPASVPMGAQDLISKLLRHNPSERLPLAQVSAHPWVRANSRRVLPPSALQSVA
Regarding B1, the “in vitro phosphorylation, read by western blot” value is “the Flag-AURKB protein had kinase activity and can phosphorylate histone H3”.

For the origin of these results see patent US20200031807.
